Blank lines part the entries; values can stand above or below the molecule they belong to.
Target: T1, mouse HRt (hairless protein aa 490-1182) (Mus musculus, UniProt Q61645)
T1 construct: HR cDNA corresponding to the C-terminal half of HR protein (aa residues 490 to 1182, hereinafter HRt); expressed in transfected cells; host or cells: Saccharomyces cerevisiae PJ69-2A transformed with BD-HRt plasmid, mated with Y187 carrying the human brain cDNA library in pACT2
T1 sequence (Q61645 490-1182): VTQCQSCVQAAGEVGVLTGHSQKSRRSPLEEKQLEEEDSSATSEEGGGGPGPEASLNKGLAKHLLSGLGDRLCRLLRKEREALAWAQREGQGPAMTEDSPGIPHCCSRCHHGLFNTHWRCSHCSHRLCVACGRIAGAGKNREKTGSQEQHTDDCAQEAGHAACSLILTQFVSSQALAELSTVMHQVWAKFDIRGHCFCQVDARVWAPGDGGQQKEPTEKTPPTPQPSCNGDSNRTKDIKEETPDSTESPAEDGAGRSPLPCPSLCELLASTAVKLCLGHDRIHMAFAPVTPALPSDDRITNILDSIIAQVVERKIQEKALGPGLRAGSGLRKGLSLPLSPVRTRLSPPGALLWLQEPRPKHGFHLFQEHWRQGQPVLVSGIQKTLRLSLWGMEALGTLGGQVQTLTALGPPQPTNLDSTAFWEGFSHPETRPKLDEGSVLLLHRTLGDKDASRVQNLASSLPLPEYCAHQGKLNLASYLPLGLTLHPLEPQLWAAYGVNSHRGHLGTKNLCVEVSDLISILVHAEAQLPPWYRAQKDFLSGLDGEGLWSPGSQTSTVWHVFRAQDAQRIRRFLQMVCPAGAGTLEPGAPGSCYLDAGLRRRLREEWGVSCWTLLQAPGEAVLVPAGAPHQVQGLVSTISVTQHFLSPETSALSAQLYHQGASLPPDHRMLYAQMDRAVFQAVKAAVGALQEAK
Test: Yeast two-hybrid screen of BD-HRt against human brain cDNA library in AD vector, lacZ coloration on QDO-Xgal plates
Type: cell-based
Settings: BD-HRt(mouse) x human brain cDNA library in AD-vector
Text: The present example provides for Hairless Protein (HR) interacting partners (HR-IP) using the yeast two-hybrid technology. […] Yeast cells expressing BD-HRt are mated with yeast cells pretransformed with human brain cDNA library in the activation domain (AD) vector.
Cloning of HRt into GAL4 binding domain (BD) yeast two-hybrid (Y2H) vector: The HRt insert from pET32a-HRt is excised as an Eco RI-Xho I fragment (there is a unique Xho I site just adjacent to HRt insert) and inserted at the Eco RI-Sal I sites of Y2H-BD vector pGBKT7 (Catalog No. K1612-B; a component of Matchmaker two-hybrid System 3 (Catalog No. K1612-1) BD Biosciences Clontech, Palo Alto, Calif.) to obtain pGBKT7-HRt in which HRt is fused in-frame to GAL 4 DNA BD (this plasmid is also designated BD-HRt).
Pretransformed human brain […] cDNA Library Screen for HRt interaction partners: Pretransformed human brain […] high-complexity GAL4 cDNA library that has already been amplified and introduced into yeast strain Y187 (MATα) is used to screen for HRt interacting proteins. […] The library host strain Y187 provides a third reporter gene (lacZ) for optional quantification of signal strength. The protocol as described in Clontech user manual (PT3183-1) is used. Briefly, the library is mixed with PJ69-2A strain that has been transformed with the BD-HRt plasmid in YPD medium containing adenine hemisulfate (0.004%) and kanamycin (0.005%) and incubated for 20-24 h at 30° C. The next day, the mating mixture is plated on Leu, Trp, His TDO that selects for two-hybrid interactions, and then the positive clones are screened for growth on Leu, Trp, His, Ade QDO, which is a more stringent condition for interaction. Colonies that grew well on QDO are also screened for lacZ expression by streaking on QDO-Xgal plates. Based on a visual assessment of colonies for the intensity of blue color, the clones are classified into high (H), medium (M), low (L) or very low (VL) categories.
The positive clones are expected to contain an AD-IP (interacting partner) that interacts with BD-HRt. To characterize IP, the sequence of IP is determined and matched to the human genome database. For this purpose, total DNA is isolated from the positive clones and PCR amplified with […] AD LD (long distance)-insert screening amplimers (Catalog No.9103-1; BD Biosciences Clontech, PaloAlto, Calif.). Reaction is conducted in 50 μl volume for 35 cycles using the conditions recommended with the Advantage2 PCR kit (Catalog No. K1910-1; BD Biosciences Clontech, PaloAlto, Calif.).

B1: Human POM-ZP3: human HRt interacting partner, GenBank U10099, SEQ ID NO:36/37 (protein, listed as Homo sapiens)
chain: LEQKLALAERIRGHVLSLALQMYGCRVIQKALEFIPSDQQNEMVRELDGHVLKCVKDQNGNHVVQKCIECVQPQSLQFIIDAFKGQVFALSTHP
- XGAL (rate and intensity of coloration of colonies on Xgal): M (M = Medium blue in 3-5 days)

B3: Human pumilio(PUMH1): human HRt interacting partner, GenBank D43951, SEQ ID NO:44/45 (protein, UniProt Q14671 2-1186, looked up)
Pumilio homolog 1: SVACVLKRKAVLWQDSFSPHLKHHPQEPANPNMPVVLTSGTGSQAQPQPAANQALAAGTHSSPVPGSIGVAGRSQDDAMVDYFFQRQHGEQLGGGGSGGGGYNNSKHRWPTGDNIHAEHQVRSMDELNHDFQALALEGRAMGEQLLPGKKFWETDESSKDGPKGIFLGDQWRDSAWGTSDHSVSQPIMVQRRPGQSFHVNSEVNSVLSPRSESGGLGVSMVEYVLSSSPGDSCLRKGGFGPRDADSDENDKGEKKNKGTFDGDKLGDLKEEGDVMDKTNGLPVQNGIDADVKDFSRTPGNCQNSANEVDLLGPNQNGSEGLAQLTSTNGAKPVEDFSNMESQSVPLDPMEHVGMEPLQFDYSGTQVPVDSAAATVGLFDYNSQQQLFQRPNALAVQQLTAAQQQQYALAAAHQPHIGLAPAAFVPNPYIISAAPPGTDPYTAGLAAAATLGPAVVPHQYYGVTPWGVYPASLFQQQAAAAAAATNSANQQTTPQAQQGQQQVLRGGASQRPLTPNQNQQGQQTDPLVAAAAVNSALAFGQGLAAGMPGYPVLAPAAYYDQTGALVVNAGARNGLGAPVRLVAPAPVIISSSAAQAAVAAAAASANGAAGGLAGTTNGPFRPLGTQQPQPQPQQQPNNNLASSSFYGNNSLNSNSQSSSLFSQGSAQPANTSLGFGSSSSLGATLGSALGGFGTAVANSNTGSGSRRDSLTGSSDLYKRTSSSLTPIGHSFYNGLSFSSSPGPVGMPLPSQGPGHSQTPPPSLSSHGSSSSLNLGGLTNGSGRYISAAPGAEAKYRSASSASSLFSPSSTLFSSSRLRYGMSDVMPSGRSRLLEDFRNNRYPNLQLREIAGHIMEFSQDQHGSRFIQLKLERATPAERQLVFNEILQAAYQLMVDVFGNYVIQKFFEFGSLEQKLALAERIRGHVLSLALQMYGCRVIQKALEFIPSDQQNEMVRELDGHVLKCVKDQNGNHVVQKCIECVQPQSLQFIIDAFKGQVFALSTHPYGCRVIQRILEHCLPDQTLPILEELHQHTEQLVQDQYGNYVIQHVLEHGRPEDKSKIVAEIRGNVLVLSQHKFASNVVEKCVTHASRTERAVLIDEVCTMNDGPHSALYTMMKDQYANYVVQKMIDVAEPGQRKIVMHKIRPHIATLRKYTYGKHILAKLEKYYMKNGVDLGPICGPPNGII
- XGAL (rate and intensity of coloration of colonies on Xgal): M (M = Medium blue in 3-5 days)

B4: Human hypothalamus protein HSMNP1: human HRt interacting partner, GenBank AF220191, SEQ ID NO:30/31 (protein, listed as Homo sapiens)
chain: DRRFSRSAIPEQIISSTLSSPSSNAPDPCAKETVLSALKEKKKKRTVEEEDQIFLDGQENKRSCLVDGLTDASSAFKVPRPGPDTLQFTVDVFHFANDSRNMIYITCHLKVTLAEQDPDELNKACSFSKPSNSWFPVEGPADICQCCNKGDCGTPSHSRRQPRVVSQWSTSASRNRRHVTEEADVTVGATDLPGQEW
- XGAL (rate and intensity of coloration of colonies on Xgal): M (M = Medium blue in 3-5 days)

The remaining lines, values ahead:

- XGAL (rate and intensity of coloration of colonies on Xgal): M (M = Medium blue in 3-5 days)
B2: Human alpha enolase: human HRt interacting partner, GenBank M14328, SEQ ID NO:32/33 (protein, listed as Homo sapiens)
chain: DGEPCFSCLYGNGPHPPAPQPSSRFNDAPAADKEPSVVQFCEFVSAPEVSRWAGPIIDVLLDYVGNVQLCSRLKEHIDSFEDWAVIKEKAEPPRPLAHLCRLRVRKAIGKYRIKLLDTLPLPGRLIRYLKYENTQ

- XGAL (rate and intensity of coloration of colonies on Xgal): M (M = Medium blue in 3-5 days)
B5: Human quinone oxidoreductase(NQO2): human HRt interacting partner, GenBank J02888, SEQ ID NO:40/41 (protein, listed as Homo sapiens)
chain: PDSNAIRPQLVPHHRTTQQEAGGTMTSATQSARAFSRAPPQTSLWPALPSSLELELLQRQPQQASLHIEVAGPIAQTRETHRELYVFIFLL

Source: US20040086945A1, “Hairless protein-interacting partner complexes and methods thereto” (The Procter & Gamble Company, priority 2002, published 2004)
